In FireProtDB (doi:10.1002/pro.3128):

Details: Homo sapiens, pH 7.3, 25 °C, Sodium citrate 5mM, KF 50mM, transition: 2, reversible: no, whole UniProt chain shown

B1: Pleckstrin homology domain-containing family F member 2 wild type, Q9H8W4 (protein)
chain: MVDRLANSEANTRRISIVENCFGAAGQPLTIPGRVLIGEGVLTKLCRKKPKARQFFLFNDILVYGNIVIQKKKYNKQHIIPLENVTIDSIKDEGDLRNGWLIKTPTKSFAVYAATATEKSEWMNHINKCVTDLLSKSGKTPSNEHAAVWVPDSEATVCMRCQKAKFTPVNRRHHCRKCGFVVCGPCSEKRFLLPSQSSKPVRICDFCYDLLSAGDMATCQPARSDSYSQSLKSPLNDMSDDDDDDDSSD
denaturant m value (GdnHCl, CD): 2.48 kcal/mol/M
denaturant midpoint (higher = more stable) (GdnHCl, CD): 1.51 M
unfolding free energy (GdnHCl, CD): 3.75 kcal/mol
denaturant m value (GdnHCl, Fluorescence): 2.93 kcal/mol/M
denaturant midpoint (higher = more stable) (GdnHCl, Fluorescence): 1.3 M
unfolding free energy (GdnHCl, Fluorescence): 3.8 kcal/mol
denaturant m value (Urea, CD): 1.16 kcal/mol/M
denaturant midpoint (higher = more stable) (Urea, CD): 3.45 M
unfolding free energy (Urea, CD): 4 kcal/mol
denaturant m value (Urea, Fluorescence): 1.19 kcal/mol/M
denaturant midpoint (higher = more stable) (Urea, Fluorescence): 3.42 M
unfolding free energy (Urea, Fluorescence): 4.07 kcal/mol
